Assay results as given in patent US20230322922A1.

Columns and labels:
[1] = target: human HER2 expressed on target cells (BT-474, SKOV3, MCF-7, human cardiomyocytes) (human) (UniProt P04626); assay: cell-based or functional assay
[2] = target: human CD3 (human); assay: surface plasmon resonance, equilibrium binding analysis
[3] = target: cynomolgus monkey CD3 (cynomolgus monkey); assay: as above
[4] = target: cynomolgus monkey HER2 (cynomolgus monkey); assay: as above
[5] = target: human HER2 (human) (UniProt P04626); assay: as above

| Jurkat NFAT-Luciferase reporter T cell activation in the presence of BT-474 cells, EC50 [1] [nM] | Kd [2] [nM] | Kd [3] [nM] | Kd [4] [nM] | fold reduction of affinity by masking, against AMX-818(PAT) [2] [fold] | Kd [5] [nM] | fold reduction of affinity by masking, against AMX-818(PAT) [3] [fold] | fold reduction of affinity by masking, against AMX-818(PAT) [4] [fold] | Substance | T cell-mediated cytotoxicity against BT474 cells (PBMC 1:1, 48 h, CellTiter-Glo), EC50 [1] [nM] | T cell-mediated cytotoxicity against SKOV3 cells (PBMC 1:1, 48 h, CellTiter-Glo), EC50 [1] [nM] | cytotoxicity against BT-474 tumor cells with PBMC effectors (1:1), IC50 [1] [nM] |
| --- | --- | --- | --- | --- | --- | --- | --- | --- | --- | --- | --- |
| 0.07 | 26.3 | 21.5 | 2 | – | – | – | – | AMX-818(PAT) (bispecific antibody) | 0.0048 | 0.0034 | 0.005 to 0.011 |
| – | 160 | 140 | 20.1 | 6 | 24.9 | 6 | 10 | AMX-818 (bispecific antibody) | 49.4 | 44.5 | – |
